The values that follow come from publication doi:10.1101/475152.

This data set deals with Mlh1-Pms1 DLDMMR (Saccharomyces cerevisiae (yeast; …, UniProt P38920;P14242 1-347+374-769;1-436+488-873, internal_change;internal_change). The data set can be described thus: filter binding.

B1: 49-mer homoduplex AO3142/AO3144 (dsDNA)
DNA 1: GGGTCAACGTGGGCAAAGATGTCCTAGCAAGTCAGAATTCGGTAGCGTG
DNA 2: CACGCTACCGAATTCTGACTTGCTAGGACATCTTTGCCCACGTTGACCC
Take B1: the binding result was “binds”.
